Experimental data published in patent US20180105574A1.
“And” between values parts separate entries of the source, which are not always exact repeats. Equal values may be shown once.

What was measured:
[1] = biological target: human fibrinogen (purified, commercial) (human) (UniProt P02671); experiment: fibrinogen binding activity of purification step, biotinylated fibrinogen
[2] = biological target: human fibrinogen (purified, commercial) (human) (UniProt P02671); experiment: fibrinogen binding activity after ammonium sulfate precipitation, biotinylated fibrinogen
[3] = biological target: human fibrinogen (purified, commercial) (human) (UniProt P02671); experiment: fibrinogen binding activity of the gel filtration pool (pure Pfg), biotinylated fibrinogen
[4] = biological target: human fibrinogen (purified, commercial) (human) (UniProt P02671); experiment: fibrinogen binding activity of the anion exchange pool (partly purified Pfg), biotinylated fibrinogen
[5] = biological target: P. acnes total surface protein extract; experiment: plate assay, extract 0.8 to 50 µg/ml immobilized, biotinylated fibrinogen 0.1 µg/ml

Sequence of UniProt P02671 (P02671 20-629 limits assumed, chain 1 of 3): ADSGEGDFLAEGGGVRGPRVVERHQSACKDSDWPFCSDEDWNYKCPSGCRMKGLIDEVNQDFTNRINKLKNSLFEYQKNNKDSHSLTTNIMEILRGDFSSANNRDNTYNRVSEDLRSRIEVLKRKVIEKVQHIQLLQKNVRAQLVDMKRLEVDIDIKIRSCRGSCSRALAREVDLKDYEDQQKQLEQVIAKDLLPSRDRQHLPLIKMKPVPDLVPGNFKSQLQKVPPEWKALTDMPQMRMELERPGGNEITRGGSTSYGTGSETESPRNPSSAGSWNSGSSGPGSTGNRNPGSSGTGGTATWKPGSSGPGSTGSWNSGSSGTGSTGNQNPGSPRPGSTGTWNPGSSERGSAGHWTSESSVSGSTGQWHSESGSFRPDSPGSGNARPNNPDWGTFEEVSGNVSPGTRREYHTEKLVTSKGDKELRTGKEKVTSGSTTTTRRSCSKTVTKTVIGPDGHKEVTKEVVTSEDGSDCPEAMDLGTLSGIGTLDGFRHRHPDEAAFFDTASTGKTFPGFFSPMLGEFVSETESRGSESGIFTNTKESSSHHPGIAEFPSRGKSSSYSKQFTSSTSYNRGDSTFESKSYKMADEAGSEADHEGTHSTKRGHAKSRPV
Sequence of UniProt P02671 (chain, as listed by the source limits assumed, chain 2 of 3): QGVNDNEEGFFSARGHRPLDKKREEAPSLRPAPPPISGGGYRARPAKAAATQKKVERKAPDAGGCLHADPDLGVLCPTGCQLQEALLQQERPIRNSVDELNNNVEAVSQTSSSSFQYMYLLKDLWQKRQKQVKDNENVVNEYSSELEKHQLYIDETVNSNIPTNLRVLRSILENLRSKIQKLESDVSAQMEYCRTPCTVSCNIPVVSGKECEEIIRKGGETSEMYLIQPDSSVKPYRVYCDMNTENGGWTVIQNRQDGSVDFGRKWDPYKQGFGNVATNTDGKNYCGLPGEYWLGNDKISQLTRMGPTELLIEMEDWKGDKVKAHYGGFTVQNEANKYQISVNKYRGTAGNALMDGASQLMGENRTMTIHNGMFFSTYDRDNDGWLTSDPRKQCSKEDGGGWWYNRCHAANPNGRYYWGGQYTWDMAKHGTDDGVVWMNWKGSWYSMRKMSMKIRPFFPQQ
Sequence of UniProt P02671 (P02679 other isoform, or with tags, fused parts or gaps limits assumed, chain 3 of 3, further chain): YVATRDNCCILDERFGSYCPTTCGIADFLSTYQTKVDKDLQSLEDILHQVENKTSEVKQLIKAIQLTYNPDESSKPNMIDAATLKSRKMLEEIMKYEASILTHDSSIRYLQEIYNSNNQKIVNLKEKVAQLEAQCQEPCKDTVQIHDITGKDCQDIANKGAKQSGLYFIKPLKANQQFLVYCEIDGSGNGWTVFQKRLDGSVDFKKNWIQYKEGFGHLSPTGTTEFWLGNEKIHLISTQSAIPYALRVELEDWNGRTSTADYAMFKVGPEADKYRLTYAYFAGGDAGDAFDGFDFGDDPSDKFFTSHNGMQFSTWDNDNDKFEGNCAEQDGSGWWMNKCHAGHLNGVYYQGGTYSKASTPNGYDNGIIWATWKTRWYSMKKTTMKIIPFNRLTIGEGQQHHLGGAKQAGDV

With P. acnes total surface protein extract the Specific Activity (fibrinogen binding activity per unit of protein) [1] was 423 U/mg and 290 U/mg, the Total units (fibrinogen binding activity) [1] was 390000 U and 160000 U and the fold increase in specific activity against the unconcentrated lithium extract [2] was 1.45 fold.
Substance “Pfg, 58-kDa P. acnes surface protein (fibrinogen binding protein; putative adhesion or S-layer protein YP_056792, locus tag PPA2127)” has a Specific Activity (fibrinogen binding activity per unit of protein) [3] of 1840 U/mg, a Total units (fibrinogen binding activity) [3] of 368 U and a Specific Activity (fibrinogen binding activity per unit of protein) [4] of 1030 U/mg. For the same substance, the Total units (fibrinogen binding activity) [4] was 3000 U.
With “human fibrinogen (purified, commercial) (from UniProt P02671 20-629; P02679 27-437) (ligand)” the concentration of immobilized extract at which binding reaches a plateau [5] was 6.25 µg/mL.
